The values that follow come from US20160312212A1, “COW ANTIBODY SCAFFOLD POLYPEPTIDE METHOD AND COMPOSITION” (Roche Sequencing Solutions, Inc., priority 2015, published 2016).

In this test the target is T1, human thrombin (Homo sapiens, UniProt P00734).
T1 construct: biotin (chemical label)
Description: mRNA display selection against thrombin, selected sequences ranked by next-generation-sequencing frequency. Conditions: for percentage (%): share of recovered sequences; for counts: top binders ranked by frequency. It counts as binding. How it is done: 1 ml of the fusions from the previous step were added to 50 ul of M270 SA beads blocked with TBSTE+2% BSA at room temperature, and were incubated at room temperature for 30 min, and the supernatant was removed for binding with biotinylated thrombin.
8) Pre-Selected Fusions were Bound to 3 ul Biotinylated Human Thrombin at 1 U/ul at 4° C. for 1 h with Rotation
25 ul of M270 SA bead suspension was washed and blocked with TBSTE+2% BSA. The beads were then collected, mixed with 1 ml of each fusion/target complex, and incubated at room temperature for 30 min. The mixture was washed 3× in TBSTE, transferred to a new tube, and the cDNA was eluted with 50 ul of 0.1 N NaOH at room temperature for 3 min. Then 2.5 ul 3M NaAc, pH5.5. BioRad spin column was added and the volume was adjusted to 147 ul with H2O.
The following rounds of selections (3-5) were carried out following the above procedure with increased stringency (e.g. lower amounts of fusion molecule input and increased number of washing steps). After each round of selection, similar PCR amplification was done to prepare the DNA library for the next round of selection.
In summary, for example, one round of mRNA display consisted of the following steps: in vitro transcription, DNase digestion, conjugation with the puromycin oligo linker, in vitro translation/fusion formation, FLAG fusion molecule purification, reverse transcription, pre-selection or functional selection, and regeneration of the selected sequences. Briefly, the cDNA library was in vitro transcribed using T7 RNA polymerase, the mRNA templates with puromycin at the 3′ ends were generated by crosslinking with an oligonucleotide containing a psoralen residue and a puromycin residue at its 5′ and 3′ ends, respectively, and in vitro translation was performed using an NEB Purexpress Δ123 kit. The desired mRNA-protein fusions were then isolated from the translation reaction mixture using anti-FLAG magnetic beads. The fusion molecules were then converted into DNA/RNA hybrids through reverse transcription. This step removed secondary mRNA structures that might interfere with the subsequent selection.
To analyze the results of the selection, the DNA libraries were amplified after each round of selection using specially-designed sequencing primers that harbor Illumina next-generation-sequencing adapters. The libraries were mixed, further purified and next generation sequencing was performed. Peptide sequences recovered after each round of selection were called out according to their unique sequencing barcode and further comparison and analysis was done. Next-generation-sequencing provided the advantages of high throughput and a more complete overview of the selected species.
When thrombin was used as a target, a total of three rounds of selections were carried out. The selection pressure was increased by increasing the washing stringency (from three times to five times then to ten times for selection round 1, 2 and 3). Table 1 illustrates the top binders (ranked according to their frequency) after each round of selection. After selection round 3, more than 30% of the selected peptides contained the conserved “RDPGR” (SEQ ID NO:331) motif. The most abundant peptide “RDPGRLIFQS” (SEQ ID NO:332) was chosen for further analysis.

[1] abbreviates: Round 2 of selection, five washes.
Where [2] appears, read: Round 1 of selection, three washes.
Setting [3] is: Round 3 of selection, ten washes.

Turning to AAVRLNSSS*, under setting [1], the “percentage (%)” value was found to be 0.0046% and the counts was determined as 75.

Consider “ETRIYIRFHT (MGCTSVHQETKKYQSETRIYIRFHTSYTYNYEHVDVWGCGSADYKDDDDKKK)”, for which, under setting [1], the “percentage (%)” value is on record as 0.0052% and the counts was 86.

On to “HCDTLELRPA (MGCTSVHQETKKYQSHCDTLELRPASYTYNYEHVDVWGCGSADYKDDDDKKK)”, for which, under setting [2], the “percentage (%)” value is given as 1.2E−03% and the counts is 40.

Turning to “HRLQIATVYT (MGCTSVHQETKKYQSHRLQIATVYTSYTYNYEHVDVWGCGSADYKDDDDKKK)”, under setting [2], the “percentage (%)” value is on record as 1.3E−03% and the counts came out at 42. Further, under setting [1], the “percentage (%)” value is on record as 0.0109% and the counts amounted to 179.

As for “KCCTSMVIQL (MGCTSVHQETKKYQSKCCTSMVIQLSYTYNYEHVDVWGCGSADYKDDDDKKK)”, under setting [2], the “percentage (%)” value is 1.2E−03% and the counts came out at 38.

With “LKQTDFRTPI (MGCTSVHQETKKYQSLKQTDFRTPISYTYNYEHVDVWGCGSADYKDDDDKKK)”, under setting [2], the “percentage (%)” value is 1.2E−03% and the counts came to 39.

With “LQRAISSYSR (MGCTSVHQETKKYQSLQRAISSYSRSYTYNYEHVDVWGCGSADYKDDDDKKK)”, under setting [2], the “percentage (%)” value is 1.2E−03% and the counts amounted to 38.

As to “PLIHPRRGYA (MGCTSVHQETKKYQSPLIHPRRGYASYTYNYEHVDVWGCGSADYKDDDDKKK)”, under setting [2], the “percentage (%)” value worked out at 1.3E−03% and the counts was 43.

Consider “PPVLPQLVLL (MGCTSVHQETKKYQSPPVLPQLVLLSYTYNYEHVDVWGCGSADYKDDDDKKK)”, for which, under setting [2], the “percentage (%)” value worked out at 1.4E−03% and the counts was 44.

Regarding “QFHLEFAFTL (MGCTSVHQETKKYQSQFHLEFAFTLSYTYNYEHVDVWGCGSADYKDDDDKKK)”, under setting [3], the “percentage (%)” value is recorded as 0.020% and the counts is 164.

As for “QMSFRFEVRV (MGCTSVHQETKKYQSQMSFRFEVRVSYTYNYEHVDVWGCGSADYKDDDDKKK)”, under setting [3], the “percentage (%)” value was 0.025% and the counts was determined as 211.

As for “RDPGRIVFNN (MGCTSVHQETKKYQSRDPGRIVFNNSYTYNYEHVDVWGCGSADYKDDDDKKK)”, under setting [1], the “percentage (%)” value was 0.0475% and the counts is 781. Moreover, under setting [3], the “percentage (%)” value is 1.144% and the counts is given as 9534.

As for “RDPGRLIFQS (MGCTSVHQETKKYQSRDPGRLIFQSSYTYNYEHVDVWGCGSADYKDDDDKKK)”, under setting [1], the “percentage (%)” value is listed as 0.1608% and the counts stood at 2642. Under setting [3], the “percentage (%)” value came to 20.512% and the counts is reported as 170914.

With “RDPGRVIFEI (MGCTSVHQETKKYQSRDPGRVIFEISYTYNYEHVDVWGCGSADYKDDDDKKK)”, under setting [1], the “percentage (%)” value was 0.0993% and the counts is recorded as 1632. Besides, under setting [3], the “percentage (%)” value is reported as 10.038% and the counts was determined as 83638.

With “RDPYNVLISL (MGCTSVHQETKKYQSRDPYNVLISLSYTYNYEHVDVWGCGSADYKDDDDKKK)”, the “percentage (%)” value is, setting by setting: under setting [1], 0.0170%; under setting [3], 0.084%. In addition, the counts reads like this: under setting [1], 278; under setting [3], 702.

“RFHLFILGTS (MGCTSVHQETKKYQSRFHLFILGTSSYTYNYEHVDVWGCGSADYKDDDDKKK)”: under setting [2], the “percentage (%)” value turned out to be 1.4E−03% and the counts is reported as 46.

Consider “RSHGQFSFTF (MGCTSVHQETKKYQSRSHGQFSFTFSYTYNYEHVDVWGCGSADYKDDDDKKK)”, for which, under setting [3], the “percentage (%)” value came out at 0.031% and the counts is 258.

Take RTKIK*NGL*: under setting [1], the “percentage (%)” value worked out at 0.0052% and the counts amounted to 86.

Turning to “SIEFGLTFSF (MGCTSVHQETKKYQSSIEFGLTFSFSYTYNYEHVDVWGCGSADYKDDDDKKK)”, under setting [3], the “percentage (%)” value came out at 0.023% and the counts came to 195.

With “SLFVEYRITY (MGCTSVHQETKKYQSSLFVEYRITYSYTYNYEHVDVWGCGSADYKDDDDKKK)”, under setting [3], the “percentage (%)” value was 0.027% and the counts is 224.

With “SQSERATPRY (MGCTSVHQETKKYQSSQSERATPRYSYTYNYEHVDVWGCGSADYKDDDDKKK)”, under setting [2], the “percentage (%)” value came out at 1.5E−03% and the counts is given as 47.

On to TQPKLTIEQR, for which, under setting [2], the “percentage (%)” value was 1.3E−03% and the counts is reported as 42.

VTSTYMFMYA: the “percentage (%)” value by setting is: under setting [1], 0.0051%; under setting [3], 0.021%. For the same substance, the counts by setting is: under setting [1], 84; under setting [3], 175.

Take VVEFHFKWCI: under setting [1], the “percentage (%)” value is 0.0046% and the counts was found to be 75.
